Test results as given in US20220257733A1, “ANTIGENIC POLYPEPTIDES AND METHODS OF USE THEREOF” (AGENUS INC., priority 2019, published 2022).
One block for each molecule: values may come before it. Non-standard residues stand in square brackets, D forms with d. No end group written: not given here. pT = C[C@@H](OP(=O)(O)O)[C@H](N)C(=O)O; pS = N[C@@H](COP(=O)(O)O)C(=O)O

How the values were obtained:
[1] = target: HLA A*02:01 (Homo sapiens, UniProt P04439, D140Y/D185E/D98H/E176V/E277Q/G131W/G231S/I119V/I121R/I166T/I218V/L300P/L318F/N151K/N90K/P208A/P217A/Q86G/Q94H/R138H/R169H/T345S); experiment: AlphaScreen assay of peptide binding to HLA A*02:01; set-up: key to Kd in nM A*02:01: NT means that binding was not tested; NB means no binding was detected; LB stands for low binding and indicates that while some binding was observed, it was below the level that would allow accurate calculation of a Kd; settings: biotinylated HLA A*02:01 with excess β2m, Michaelis-Menten fit
Description: (§1) An AlphaScreen® assay was used to evaluate the binding of peptides to HLA molecules. Donor beads conjugated with streptavidin, and acceptor beads conjugated with the anti-human HLA class I antibody W6/32, were used to assess peptide binding. Biotinylated HLAs (A*02:01, B*07:02, C*07:01, or C*07:02) were mixed with a fixed excess of β2m and the mixtures added to each well of a 384-well microplate. Serial dilutions of the synthesized phosphopeptides were added to the wells, and the resultant HLA/β2/peptide mixtures were incubated overnight at 18° C. W6/32 conjugated acceptor beads were subsequently added to the wells, and the mixture was incubated for 1 hour at 21° C. Streptavidin conjugated donor beads were then added to the wells, and the mixture was incubated for a further 1 hour at 21° C.
(§2) The microplate was read using the PerkinElmer® plate reader, and data were plotted using the Michaelis-Menten equation to determine the Kd for each phosphopeptide.
Table 5 lists the Kd of each of the selected phosphopeptides to the indicated HLAs (A*02:01, B*07:02, C*07:01, or C*07:02). NT means that binding was not tested. NB means no binding was detected. […] In each case, the phosphopeptides bound as indicated below.

[2] = target: T1, Biotinylated HLA-A*02:01 with β2m (human, biotinylated (site not stated)); experiment: AlphaScreen; biotinylated HLA + excess β2m + peptide dilutions, W6/32 acceptor beads, streptavidin donor beads
T1 construct: MHC class I heavy chain mixed with excess β2m
Description: as §1, §2

[3] = target: T1, Biotinylated HLA-A*02:01 with β2m; experiment: AlphaScreen; biotinylated HLA + excess β2m + peptide dilutions, W6/32 acceptor beads, streptavidin donor beads; Michaelis-Menten fit
Description: as §1, §2

Molecule: CC(C)C[C@H](NC(=O)[C@H](CCC(=O)O)NC(=O)[C@H](CCC(=O)O)NC(=O)[C@H](CC(C)C)NC(=O)[C@H](COP(=O)(O)O)NC(=O)CNC(=O)[C@H](Cc1c[nH]cn1)NC(=O)[C@H](Cc1ccccc1)NC(=O)[C@H](CC(C)C)NC(=O)[C@@H](N)CCCCN)C(=O)O [compound 424]
Kd [1]: 203 nM

Molecule: CC(C)[C@H](NC(=O)CNC(=O)[C@@H]1CCCN1C(=O)[C@@H]1CCCN1C(=O)[C@@H](NC(=O)[C@H](CCCNC(=N)N)NC(=O)[C@@H]1CCCN1C(=O)[C@H](C)N)[C@@H](C)OP(=O)(O)O)C(=O)N[C@H](C(=O)N[C@@H](Cc1ccccc1)C(=O)O)[C@@H](C)O [compound 120]
Kd in nM A*02:01 [1]: NB

Molecule: CSCC[C@H](NC(=O)[C@H](CC(C)C)NC(=O)[C@@H](N)CCC(N)=O)C(=O)N[C@H](C(=O)N[C@@H](CC(C)C)C(=O)N[C@@H](CCC(=O)O)C(=O)N[C@@H](CC(N)=O)C(=O)N[C@@H](CCCCN)C(=O)N[C@@H](CC(C)C)C(=O)O)[C@@H](C)OP(=O)(O)O [compound 654]
Kd [1]: 231 nM

Molecule: CC[C@H](C)[C@H](NC(=O)[C@H](Cc1ccc(O)cc1)NC(=O)[C@H](COP(=O)(O)O)NC(=O)[C@H](CC(C)C)NC(=O)[C@H](CC(C)C)NC(=O)[C@@H](N)CCCCN)C(=O)N[C@@H](CCC(N)=O)C(=O)N[C@@H](CCCNC(=N)N)C(=O)N[C@@H](CC(C)C)C(=O)O [compound 433]
Kd [1]: 188 nM

Molecule: CC[C@H](C)[C@H](NC(=O)[C@H](CO)NC(=O)[C@H](CCCNC(=N)N)NC(=O)[C@H](COP(=O)(O)O)NC(=O)[C@H](CC(C)C)NC(=O)[C@@H](N)Cc1ccccc1)C(=O)N1CCC[C@H]1C(=O)N[C@@H](CO)C(=O)N[C@@H](CC(C)C)C(=O)O [compound 228]
Kd [1]: 641 nM

Molecule: FL[pS]RSIPSL (predicted HLA-A*02:01) [FLsRSIPSL]
Kd [3]: 641 nM

Molecule: KLL[pS]YIQRL (predicted HLA-A*02:01) [KLLsYIQRL]
Kd [3]: 188 nM

Molecule: QLM[pT]LENKL (predicted HLA-A*02:01) [QLMtLENKL]
Kd [3]: 231 nM

Molecule: KLFHG[pS]LEEL (predicted HLA-A*02:01) [KLFHGsLEEL]
Kd [3]: 203 nM

Second part, the molecule after the results:

Kd in nM A*02:01 [1]: NB
Molecule: CC(C)C[C@H](NC(=O)[C@H](COP(=O)(O)O)NC(=O)[C@H](CCCNC(=N)N)NC(=O)[C@H](CCCCN)NC(=O)[C@H](CO)NC(=O)[C@H](CC(C)C)NC(=O)[C@H](Cc1ccccc1)NC(=O)[C@@H]1CCCN1C(=O)[C@@H](N)CO)C(=O)O [compound 1157]

Kd in nM A*02:01 [1]: NB
Molecule: CC[C@H](C)[C@H](NC(=O)[C@@H]1CCCN1C(=O)[C@H](COP(=O)(O)O)NC(=O)[C@H](CCCNC(=N)N)NC(=O)[C@@H]1CCCN1C(=O)[C@@H](N)CO)C(=O)N[C@@H](CO)C(=O)N1CCC[C@H]1C(=O)N[C@@H](CCC(=O)O)C(=O)N[C@@H](CC(C)C)C(=O)O [compound 1179]

Kd in nM A*02:01 [1]: NB
Molecule: CC(C)C[C@H](NC(=O)[C@@H](NC(=O)[C@H](CC(C)C)NC(=O)[C@@H]1CCCN1C(=O)[C@H](COP(=O)(O)O)NC(=O)[C@@H]1CCCN1C(=O)[C@@H](NC(=O)[C@H](CCCNC(=N)N)NC(=O)[C@@H]1CCCN1C(=O)[C@@H](N)CCC(N)=O)[C@@H](C)O)C(C)C)C(=O)O [compound 657]

binding result [2]: no binding
Molecule: SPFLSKR[pS]L (predicted HLA-B*07:02) [SPFLSKRsL]

binding result [2]: no binding
B1: HRVsVILKL (peptide)
peptide: HRV[pS]VILKL
notes: predicted HLA-B*14:01 (not among the HLAs tested)

binding result [2]: no binding
Molecule: APR[pT]PPGVTF (predicted HLA-B*07:02) [APRtPPGVTF]

binding result [2]: no binding
B2: SRKsFVFEL (peptide)
peptide: SRK[pS]FVFEL
notes: predicted HLA-B*08:01 (not among the HLAs tested)

binding result [2]: no binding
B3: YRLsPEPTPL (peptide)
peptide: YRL[pS]PEPTPL
notes: predicted HLA-C*07:02 (not tested on it)

binding result [2]: no binding
Molecule: SPR[pS]PISPEL (predicted HLA-B*07:02) [SPRsPISPEL]
